Test results as given in paper PMC9482650, “Quantitative fragmentomics allow affinity mapping of interactomes” (Nature Communications, 2022).

T1: NHERF3_1, Q5T2W1
T1 sequence (Q5T2W1 4-100, limits assumed, looked up): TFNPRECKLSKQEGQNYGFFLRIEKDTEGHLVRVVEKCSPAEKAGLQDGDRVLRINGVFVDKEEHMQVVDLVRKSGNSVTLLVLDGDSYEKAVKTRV

T2: GRIP1_2, Q9Y3R0
T2 sequence (Q9Y3R0 145-248, limits assumed, looked up): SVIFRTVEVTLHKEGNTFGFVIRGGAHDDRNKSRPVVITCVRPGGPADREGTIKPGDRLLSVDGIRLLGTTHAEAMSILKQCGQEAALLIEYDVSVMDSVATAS

T3: LIN7A, O14910
T3 sequence (O14910 103-200, limits assumed, looked up): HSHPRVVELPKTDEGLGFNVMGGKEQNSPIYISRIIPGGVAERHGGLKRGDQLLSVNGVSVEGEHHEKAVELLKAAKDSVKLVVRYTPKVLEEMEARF

T4: GRIP1_7, Q9Y3R0
T4 sequence (Q9Y3R0 999-1096, limits assumed, looked up): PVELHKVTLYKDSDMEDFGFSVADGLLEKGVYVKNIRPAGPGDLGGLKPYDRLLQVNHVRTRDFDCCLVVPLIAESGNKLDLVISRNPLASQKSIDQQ

T5: RADIL, Q96JH8
T5 sequence (Q96JH8 971-1071, limits assumed, looked up): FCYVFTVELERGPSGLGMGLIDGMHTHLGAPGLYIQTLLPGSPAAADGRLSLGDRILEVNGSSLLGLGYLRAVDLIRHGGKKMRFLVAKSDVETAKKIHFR

T6: PCLO, Q9Y6V0
T6 sequence (Q9Y6V0 4491-4600, limits assumed, looked up): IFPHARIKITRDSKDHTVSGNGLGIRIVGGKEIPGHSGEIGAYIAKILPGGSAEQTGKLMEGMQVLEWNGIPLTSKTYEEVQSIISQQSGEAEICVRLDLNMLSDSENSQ

T7: APBA1_1, Q02410
T7 sequence (Q02410 651-752, limits assumed, looked up): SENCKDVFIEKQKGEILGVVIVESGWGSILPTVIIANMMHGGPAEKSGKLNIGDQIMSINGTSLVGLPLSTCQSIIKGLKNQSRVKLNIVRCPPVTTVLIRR

T8: MPDZ_10, O75970
T8 sequence (O75970 1624-1722, limits assumed, looked up): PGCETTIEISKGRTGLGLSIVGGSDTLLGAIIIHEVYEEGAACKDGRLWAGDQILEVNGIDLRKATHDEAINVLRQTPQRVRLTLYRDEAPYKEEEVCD

T9: GRIP1_3, Q9Y3R0
T9 sequence (Q9Y3R0 247-346, limits assumed, looked up): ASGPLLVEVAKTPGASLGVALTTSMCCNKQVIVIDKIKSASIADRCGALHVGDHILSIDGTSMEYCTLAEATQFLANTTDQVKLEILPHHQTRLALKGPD

T10: TIAM2, Q8IVF5
T10 sequence (Q8IVF5 885-986, limits assumed, looked up): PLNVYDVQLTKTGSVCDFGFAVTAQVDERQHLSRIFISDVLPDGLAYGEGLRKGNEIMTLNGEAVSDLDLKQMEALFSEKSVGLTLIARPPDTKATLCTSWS


Biological target: GORASP2, Q9H8Y8
Test: holdup assay
Design: key: below the threshold = too weak to quantify, mostly under pKd 3.1 to 4
Details: plain residues with an end cap or a label only (N-terminal biotin on a linker: ado-ado)

Binder	pKd
PSVGSKKTVL [REELD1, A0A1B0GV85]	below the threshold
DRIQSCLSDA [SBF1, O95248]	below the threshold

Biological target: NHERF4_4, Q86UT5
Sequence (Q86UT5 464-550): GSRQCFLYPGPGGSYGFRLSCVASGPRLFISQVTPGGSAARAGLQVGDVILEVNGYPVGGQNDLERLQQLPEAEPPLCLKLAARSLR
Test: holdup assay
Design: key: below the threshold = too weak to quantify, mostly under pKd 3.1 to 4
Details: plain residues with an end cap or a label only (N-terminal biotin on a linker: ado-ado)

Binder	pKd
PSVGSKKTVL [REELD1, A0A1B0GV85]	below the threshold
DRIQSCLSDA [SBF1, O95248]	below the threshold

Biological target: T1, NHERF3_1, Q5T2W1
Test: holdup assay
Design: key: below the threshold = too weak to quantify, mostly under pKd 3.1 to 4
Details: plain residues with an end cap or a label only (N-terminal biotin on a linker: ado-ado)

Binder	pKd
PSVGSKKTVL [REELD1, A0A1B0GV85]	3.72
DRIQSCLSDA [SBF1, O95248]	below the threshold

Biological target: T2, GRIP1_2, Q9Y3R0
Test: holdup assay
Design: key: below the threshold = too weak to quantify, mostly under pKd 3.1 to 4
Details: plain residues with an end cap or a label only (N-terminal biotin on a linker: ado-ado)

Binder	pKd
PSVGSKKTVL [REELD1, A0A1B0GV85]	below the threshold
DRIQSCLSDA [SBF1, O95248]	below the threshold

Biological target: T3, LIN7A, O14910
Test: holdup assay
Design: key: below the threshold = too weak to quantify, mostly under pKd 3.1 to 4
Details: plain residues with an end cap or a label only (N-terminal biotin on a linker: ado-ado)

Binder	pKd
PSVGSKKTVL [REELD1, A0A1B0GV85]	below the threshold
DRIQSCLSDA [SBF1, O95248]	below the threshold

Biological target: T4, GRIP1_7, Q9Y3R0
Test: holdup assay
Design: key: below the threshold = too weak to quantify, mostly under pKd 3.1 to 4
Details: plain residues with an end cap or a label only (N-terminal biotin on a linker: ado-ado)

Binder	pKd
PSVGSKKTVL [REELD1, A0A1B0GV85]	below the threshold
DRIQSCLSDA [SBF1, O95248]	below the threshold

Biological target: T5, RADIL, Q96JH8
Test: holdup assay
Design: key: below the threshold = too weak to quantify, mostly under pKd 3.1 to 4
Details: plain residues with an end cap or a label only (N-terminal biotin on a linker: ado-ado)

Binder	pKd
PSVGSKKTVL [REELD1, A0A1B0GV85]	below the threshold
DRIQSCLSDA [SBF1, O95248]	below the threshold

Biological target: GRID2IP_1, A4D2P6
Sequence (A4D2P6 1-87): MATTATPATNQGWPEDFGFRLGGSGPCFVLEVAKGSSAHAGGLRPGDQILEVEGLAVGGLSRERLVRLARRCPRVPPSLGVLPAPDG
Test: holdup assay
Design: key: below the threshold = too weak to quantify, mostly under pKd 3.1 to 4
Details: plain residues with an end cap or a label only (N-terminal biotin on a linker: ado-ado)

Binder	pKd
PSVGSKKTVL [REELD1, A0A1B0GV85]	below the threshold
DRIQSCLSDA [SBF1, O95248]	below the threshold

Biological target: Inadl_1, Q8NI35
Sequence (Q8NI35 113-229): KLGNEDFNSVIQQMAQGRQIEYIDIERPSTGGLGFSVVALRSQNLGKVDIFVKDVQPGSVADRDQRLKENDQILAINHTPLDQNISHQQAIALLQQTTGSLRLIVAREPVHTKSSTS
Test: holdup assay
Design: key: below the threshold = too weak to quantify, mostly under pKd 3.1 to 4
Details: plain residues with an end cap or a label only (N-terminal biotin on a linker: ado-ado)

Binder	pKd
PSVGSKKTVL [REELD1, A0A1B0GV85]	below the threshold
DRIQSCLSDA [SBF1, O95248]	below the threshold

Biological target: GRIP2_7, Q9C0E4
Sequence (Q9C0E4 934-1023): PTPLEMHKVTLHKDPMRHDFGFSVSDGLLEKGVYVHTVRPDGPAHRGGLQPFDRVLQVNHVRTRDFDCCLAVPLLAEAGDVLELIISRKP
Test: holdup assay
Design: key: below the threshold = too weak to quantify, mostly under pKd 3.1 to 4
Details: plain residues with an end cap or a label only (N-terminal biotin on a linker: ado-ado)

Binder	pKd
PSVGSKKTVL [REELD1, A0A1B0GV85]	below the threshold
DRIQSCLSDA [SBF1, O95248]	below the threshold

Biological target: T6, PCLO, Q9Y6V0
Test: holdup assay
Design: key: below the threshold = too weak to quantify, mostly under pKd 3.1 to 4
Details: plain residues with an end cap or a label only (N-terminal biotin on a linker: ado-ado)

Binder	pKd
PSVGSKKTVL [REELD1, A0A1B0GV85]	below the threshold
DRIQSCLSDA [SBF1, O95248]	below the threshold

Biological target: LDB3, O75112
Sequence (O75112 1-94): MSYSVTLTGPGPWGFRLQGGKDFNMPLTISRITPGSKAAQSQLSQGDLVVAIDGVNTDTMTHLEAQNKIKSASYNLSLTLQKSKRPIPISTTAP
Test: holdup assay
Design: key: below the threshold = too weak to quantify, mostly under pKd 3.1 to 4
Details: plain residues with an end cap or a label only (N-terminal biotin on a linker: ado-ado)

Binder	pKd
PSVGSKKTVL [REELD1, A0A1B0GV85]	below the threshold
DRIQSCLSDA [SBF1, O95248]	below the threshold

Biological target: TJP1_2, Q07157
Sequence (Q07157 181-274): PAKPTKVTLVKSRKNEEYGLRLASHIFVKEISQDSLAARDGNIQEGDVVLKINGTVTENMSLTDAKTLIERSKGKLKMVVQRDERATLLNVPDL
Test: holdup assay
Design: key: below the threshold = too weak to quantify, mostly under pKd 3.1 to 4
Details: plain residues with an end cap or a label only (N-terminal biotin on a linker: ado-ado)

Binder	pKd
PSVGSKKTVL [REELD1, A0A1B0GV85]	below the threshold
DRIQSCLSDA [SBF1, O95248]	below the threshold

Biological target: T7, APBA1_1, Q02410
Test: holdup assay
Design: key: below the threshold = too weak to quantify, mostly under pKd 3.1 to 4
Details: plain residues with an end cap or a label only (N-terminal biotin on a linker: ado-ado)

Binder	pKd
PSVGSKKTVL [REELD1, A0A1B0GV85]	below the threshold
DRIQSCLSDA [SBF1, O95248]	below the threshold

Biological target: TJP1_3, Q07157
Sequence (Q07157 416-512): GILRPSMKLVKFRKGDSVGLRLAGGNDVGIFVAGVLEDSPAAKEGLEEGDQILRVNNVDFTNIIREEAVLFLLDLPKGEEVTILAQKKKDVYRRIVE
Test: holdup assay
Design: key: below the threshold = too weak to quantify, mostly under pKd 3.1 to 4
Details: plain residues with an end cap or a label only (N-terminal biotin on a linker: ado-ado)

Binder	pKd
PSVGSKKTVL [REELD1, A0A1B0GV85]	below the threshold
DRIQSCLSDA [SBF1, O95248]	below the threshold

Biological target: MAGI2_3, Q86UL8
Sequence (Q86UL8 600-682): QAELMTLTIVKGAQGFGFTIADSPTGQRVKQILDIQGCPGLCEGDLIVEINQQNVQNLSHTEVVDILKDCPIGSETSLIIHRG
Test: holdup assay
Design: key: below the threshold = too weak to quantify, mostly under pKd 3.1 to 4
Details: plain residues with an end cap or a label only (N-terminal biotin on a linker: ado-ado)

Binder	pKd
PSVGSKKTVL [REELD1, A0A1B0GV85]	below the threshold
DRIQSCLSDA [SBF1, O95248]	below the threshold

Biological target: DLG1_1, Q12959
Test: holdup assay
Design: key: below the threshold = too weak to quantify, mostly under pKd 3.1 to 4
Details: plain residues with an end cap or a label only (N-terminal biotin on a linker: ado-ado)

Binder	pKd
PSVGSKKTVL [REELD1, A0A1B0GV85]	below the threshold
DRIQSCLSDA [SBF1, O95248]	below the threshold

Biological target: DLG1_3, Q12959
Test: holdup assay
Design: key: below the threshold = too weak to quantify, mostly under pKd 3.1 to 4
Details: plain residues with an end cap or a label only (N-terminal biotin on a linker: ado-ado)

Binder	pKd
PSVGSKKTVL [REELD1, A0A1B0GV85]	below the threshold
DRIQSCLSDA [SBF1, O95248]	below the threshold

Biological target: GOPC, Q9HD26
Test: holdup assay
Design: key: below the threshold = too weak to quantify, mostly under pKd 3.1 to 4
Details: plain residues with an end cap or a label only (N-terminal biotin on a linker: ado-ado)

Binder	pKd
PSVGSKKTVL [REELD1, A0A1B0GV85]	4.26
DRIQSCLSDA [SBF1, O95248]	below the threshold

Biological target: DLG2_3, Q15700
Test: holdup assay
Design: key: below the threshold = too weak to quantify, mostly under pKd 3.1 to 4
Details: plain residues with an end cap or a label only (N-terminal biotin on a linker: ado-ado)

Binder	pKd
PSVGSKKTVL [REELD1, A0A1B0GV85]	below the threshold
DRIQSCLSDA [SBF1, O95248]	3.78

Biological target: SCRIB_3, Q14160
Sequence (Q14160 999-1103): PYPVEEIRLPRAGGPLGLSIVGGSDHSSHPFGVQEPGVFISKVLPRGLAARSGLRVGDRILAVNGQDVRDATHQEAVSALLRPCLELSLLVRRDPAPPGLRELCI
Test: holdup assay
Design: key: below the threshold = too weak to quantify, mostly under pKd 3.1 to 4
Details: plain residues with an end cap or a label only (N-terminal biotin on a linker: ado-ado)

Binder	pKd
PSVGSKKTVL [REELD1, A0A1B0GV85]	3.6
DRIQSCLSDA [SBF1, O95248]	below the threshold

Biological target: AHNAK1, Q09666
Sequence (Q09666 4-100): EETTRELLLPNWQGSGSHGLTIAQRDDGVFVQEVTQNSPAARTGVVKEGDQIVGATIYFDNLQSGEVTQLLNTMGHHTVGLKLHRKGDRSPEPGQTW
Test: holdup assay
Design: key: below the threshold = too weak to quantify, mostly under pKd 3.1 to 4
Details: plain residues with an end cap or a label only (N-terminal biotin on a linker: ado-ado)

Binder	pKd
PSVGSKKTVL [REELD1, A0A1B0GV85]	below the threshold
DRIQSCLSDA [SBF1, O95248]	below the threshold

Biological target: DLG2_2, Q15700
Test: holdup assay
Design: key: below the threshold = too weak to quantify, mostly under pKd 3.1 to 4
Details: plain residues with an end cap or a label only (N-terminal biotin on a linker: ado-ado)

Binder	pKd
PSVGSKKTVL [REELD1, A0A1B0GV85]	below the threshold
DRIQSCLSDA [SBF1, O95248]	below the threshold

Biological target: T8, MPDZ_10, O75970
Test: holdup assay
Design: key: below the threshold = too weak to quantify, mostly under pKd 3.1 to 4
Details: plain residues with an end cap or a label only (N-terminal biotin on a linker: ado-ado)

Binder	pKd
PSVGSKKTVL [REELD1, A0A1B0GV85]	below the threshold
DRIQSCLSDA [SBF1, O95248]	below the threshold

Biological target: GIPC2, Q8TF65
Sequence (Q8TF65 112-203): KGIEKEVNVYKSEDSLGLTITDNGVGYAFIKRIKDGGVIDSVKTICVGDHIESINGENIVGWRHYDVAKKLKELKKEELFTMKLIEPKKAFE
Test: holdup assay
Design: key: below the threshold = too weak to quantify, mostly under pKd 3.1 to 4
Details: plain residues with an end cap or a label only (N-terminal biotin on a linker: ado-ado)

Binder	pKd
PSVGSKKTVL [REELD1, A0A1B0GV85]	below the threshold
DRIQSCLSDA [SBF1, O95248]	below the threshold

Biological target: T9, GRIP1_3, Q9Y3R0
Test: holdup assay
Design: key: below the threshold = too weak to quantify, mostly under pKd 3.1 to 4
Details: plain residues with an end cap or a label only (N-terminal biotin on a linker: ado-ado)

Binder	pKd
PSVGSKKTVL [REELD1, A0A1B0GV85]	below the threshold
DRIQSCLSDA [SBF1, O95248]	below the threshold

Biological target: MAGI2_2, Q86UL8
Sequence (Q86UL8 410-522): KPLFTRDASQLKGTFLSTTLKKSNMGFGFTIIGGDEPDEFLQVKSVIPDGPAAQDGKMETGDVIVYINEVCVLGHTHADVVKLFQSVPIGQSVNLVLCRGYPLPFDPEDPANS
Test: holdup assay
Design: key: below the threshold = too weak to quantify, mostly under pKd 3.1 to 4
Details: plain residues with an end cap or a label only (N-terminal biotin on a linker: ado-ado)

Binder	pKd
PSVGSKKTVL [REELD1, A0A1B0GV85]	below the threshold
DRIQSCLSDA [SBF1, O95248]	below the threshold

Biological target: T10, TIAM2, Q8IVF5
Test: holdup assay
Design: key: below the threshold = too weak to quantify, mostly under pKd 3.1 to 4
Details: plain residues with an end cap or a label only (N-terminal biotin on a linker: ado-ado)

Binder	pKd
PSVGSKKTVL [REELD1, A0A1B0GV85]	below the threshold
DRIQSCLSDA [SBF1, O95248]	4.03
